The source of these data is publication PMC8020832.

This test addresses 18 Env antigens. The test can be described thus: ELISA. (In an ELISA, binding on a coated surface is turned into a signal by an enzyme label.)

B1: 2411a revertant of heavy chain Y33V/M34L (CDR H1) (antibody, V domains shown)
VH: QVQLVQSGAEMKKPGASVRVSCEASGYTFTDYYMHWMRQAPGQGIEWLGWIKPRYGAVNYAHKFQGRVSMTRDTSIDTAYLELINLRSDDTAIYYCARSFDSDYEWWFTYWGQGTLVSVSA
VL: EIVLTQSPGTLSLSPGERATLSCRASYFISRDYLAWYQQRPGQAPKLLIYGTTTRASGIPDRFSGSGSGTDFTLTISRLEPEDFAVYYCQQYEFFGLGTKVEIK
As to B1, the mean fold change in ELISA binding titer (OD450) versus parental 2411a is 3.9 fold.

B2: 2411a revertant of heavy chain N52K (CDR H2) (antibody, V domains shown)
VH: QVQLVQSGAEMKKPGASVRVSCEASGYTFTDYVLHWMRQAPGQGIEWLGWINPRYGAVNYAHKFQGRVSMTRDTSIDTAYLELINLRSDDTAIYYCARSFDSDYEWWFTYWGQGTLVSVSA
VL: EIVLTQSPGTLSLSPGERATLSCRASYFISRDYLAWYQQRPGQAPKLLIYGTTTRASGIPDRFSGSGSGTDFTLTISRLEPEDFAVYYCQQYEFFGLGTKVEIK
For B2, the mean fold change in ELISA binding titer (OD450) versus parental 2411a was determined as 5.4 fold.

B3: 2411a revertant of light chain Q27Y (CDR L1) (antibody, V domains shown)
VH: QVQLVQSGAEMKKPGASVRVSCEASGYTFTDYVLHWMRQAPGQGIEWLGWIKPRYGAVNYAHKFQGRVSMTRDTSIDTAYLELINLRSDDTAIYYCARSFDSDYEWWFTYWGQGTLVSVSA
VL: EIVLTQSPGTLSLSPGERATLSCRASQFISRDYLAWYQQRPGQAPKLLIYGTTTRASGIPDRFSGSGSGTDFTLTISRLEPEDFAVYYCQQYEFFGLGTKVEIK
On to B3, for which the mean fold change in ELISA binding titer (OD450) versus parental 2411a came out at 1.8 fold.

B4: 2411a revertant of heavy chain Q61H (CDR H2) (antibody, V domains shown)
VH: QVQLVQSGAEMKKPGASVRVSCEASGYTFTDYVLHWMRQAPGQGIEWLGWIKPRYGAVNYAQKFQGRVSMTRDTSIDTAYLELINLRSDDTAIYYCARSFDSDYEWWFTYWGQGTLVSVSA
VL: EIVLTQSPGTLSLSPGERATLSCRASYFISRDYLAWYQQRPGQAPKLLIYGTTTRASGIPDRFSGSGSGTDFTLTISRLEPEDFAVYYCQQYEFFGLGTKVEIK
Take B4: the mean fold change in ELISA binding titer (OD450) versus parental 2411a was determined as 1.4 fold.

B5: 2411a revertant of heavy chain G56A/T57V (CDR H2) (antibody, V domains shown)
VH: QVQLVQSGAEMKKPGASVRVSCEASGYTFTDYVLHWMRQAPGQGIEWLGWIKPRYGGTNYAHKFQGRVSMTRDTSIDTAYLELINLRSDDTAIYYCARSFDSDYEWWFTYWGQGTLVSVSA
VL: EIVLTQSPGTLSLSPGERATLSCRASYFISRDYLAWYQQRPGQAPKLLIYGTTTRASGIPDRFSGSGSGTDFTLTISRLEPEDFAVYYCQQYEFFGLGTKVEIK
Take B5: the mean fold change in ELISA binding titer (OD450) versus parental 2411a amounted to 5.5 fold.

B6: 2411a revertant of heavy chain N53R/S54Y (CDR H2) (antibody, V domains shown)
VH: QVQLVQSGAEMKKPGASVRVSCEASGYTFTDYVLHWMRQAPGQGIEWLGWIKPNSGAVNYAHKFQGRVSMTRDTSIDTAYLELINLRSDDTAIYYCARSFDSDYEWWFTYWGQGTLVSVSA
VL: EIVLTQSPGTLSLSPGERATLSCRASYFISRDYLAWYQQRPGQAPKLLIYGTTTRASGIPDRFSGSGSGTDFTLTISRLEPEDFAVYYCQQYEFFGLGTKVEIK
Regarding B6, the mean fold change in ELISA binding titer (OD450) versus parental 2411a worked out at 6.5 fold.

B7: 2411a revertant of light chain S27aF (CDR L1) (antibody, V domains shown)
VH: QVQLVQSGAEMKKPGASVRVSCEASGYTFTDYVLHWMRQAPGQGIEWLGWIKPRYGAVNYAHKFQGRVSMTRDTSIDTAYLELINLRSDDTAIYYCARSFDSDYEWWFTYWGQGTLVSVSA
VL: EIVLTQSPGTLSLSPGERATLSCRASYSISRDYLAWYQQRPGQAPKLLIYGTTTRASGIPDRFSGSGSGTDFTLTISRLEPEDFAVYYCQQYEFFGLGTKVEIK
Consider B7, for which the mean fold change in ELISA binding titer (OD450) versus parental 2411a was 1.6 fold.
